Measured values taken from patent publication US10398755B2, “Clusterin pharmaceuticals and treatment methods using the same” (UNIVERSITY OF SOUTHERN CALIFORNIA, priority 2009, dated 2019).

Target: T1, MMP-2 (Mus musculus, UniProt P33434)
T1 construct: purchased R&D Systems
Assay: MMP inhibition assay (FRET peptide substrate), APMA-activated pro-MMP-2
Type: biochemical
Protocol: RFU, relative fluorescence unit, was obtained by considering the read out in PBS as 100%. Each reaction was performed in triplicate. Standard errors were depicted as a bar in each graph. Differences between values of PBS and CLU or SB-3CT reactions were statistically significant by Student t-test: *P=0.0004, **P=0.0001, +P=0.0003, and ++P=0.01. Gelatin zymography was performed with the samples pooled from each reaction set. Pro-MMPs, processed MMPs (MMP-9 or MMP-2), and C-terminal truncated, processed MMP-9 (MMP-9-ΔC) were indicated by arrows. (B) Dose-dependent inhibition of MMP-9 by CLU or SB-3CT was performed in the same condition. MMPs were mixed with CLD in TSCB buffer, 50 mM Tris-HCI, pH, 7.5, 150 mM NaCl, 5 mM CaCl2, 0.002% Brij35 (or otherwise indicated concentration) 30 min prior to substrate addition, and incubated for 3 h at RT in the presence or absence of 0.02 mM p-aminophenylmercuric acetate (APMA). MMP activity was measured using a 5-FAM/QXL520 fluorescence resonance energy transfer (FRET) peptide as a substrate (EXlEm=490 nm/520 nm) (AnaSpec, Fremont, Calif.), according to the manufacturer's protocol. Relative fluorescence unit (RFU) was obtained by subtracting the values of APMA- or enzyme-omitted reactions from those of test samples, and then considering the fluorescence unit of a PBS (vehicle) sample as 100%. Enzyme reactions were performed in black 96-well plate, containing combinations of 10 ng, 5 ng, 5 ng, 10 ng, 2.5 μg, 2.5 μg of MMP-2, MMP-7, catalytic domain of MMP-9, MMP-9, CCLU, and/or BSA, respectively, in 50 μl reaction volume. As MMP substrates (0.4 μM), 520 MMP FRET substrate […] (SEQ ID NO: 9), was used for MMP-2 and MMP-9, and 520 MMP FRET substrate XIV, […] […] Fluorescence was monitored using a Victor^3TM V multilabel counter (PerkinElmer). […] To determine whether MMP-9/CLU interaction affects the cleavage process of the propeptide of MMP-9 and/or interferes with enzymatic activity of the processed active enzyme, we performed an in vitro MMP-9 inhibition assay, by adopting FRET assay using a fluorescence-quenched peptide substrate (FIG. 3A). […] We incubated pro-MMP-9 with PBS, CLU, SB-3CT, or BSA, and a fluorescence peptide substrate in the presence or absence of APMA. […] We monitored the change in fluorescence value during the incubation of the reactions up to 3 h, which reflects the enzymatic activity of APMA-activated MMPs. […] At 3 h post incubation, the activity difference was read and reaction products were resolved by gelatin zymography. […] When the processed enzyme products were resolved on the gel, three bands were detected in the APMA-treated samples, pro-MMP-9, propeptide-cleaved MMP-9 (MMP-9), and MMP-9 with both propeptide and C-terminal region cleaved (MMP-9-ΔC), whereas only pro-MMP-9 was detected in APMA-omitted samples. […]

T1 sequence (P33434 110-662): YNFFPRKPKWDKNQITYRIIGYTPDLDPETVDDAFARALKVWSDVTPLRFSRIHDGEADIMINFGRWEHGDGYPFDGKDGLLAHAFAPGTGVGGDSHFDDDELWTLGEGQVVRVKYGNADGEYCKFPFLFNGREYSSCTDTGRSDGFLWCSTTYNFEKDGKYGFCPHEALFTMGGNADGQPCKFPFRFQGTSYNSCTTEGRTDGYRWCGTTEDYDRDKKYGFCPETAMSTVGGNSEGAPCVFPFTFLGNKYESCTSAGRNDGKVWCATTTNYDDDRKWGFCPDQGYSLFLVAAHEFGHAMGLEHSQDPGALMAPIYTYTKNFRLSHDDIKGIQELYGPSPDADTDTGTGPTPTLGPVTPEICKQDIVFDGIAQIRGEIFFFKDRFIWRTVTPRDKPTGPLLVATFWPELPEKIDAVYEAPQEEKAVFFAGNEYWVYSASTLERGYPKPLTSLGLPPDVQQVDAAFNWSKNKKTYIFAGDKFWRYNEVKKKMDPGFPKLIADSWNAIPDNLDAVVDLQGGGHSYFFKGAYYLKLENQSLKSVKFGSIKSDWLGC

B1: CLU: secreted disulfide-linked heterodimeric glycoprotein (70-80 KD); assays used recombinant mouse CLU with C-terminal (His)6 (protein, UniProt Q06890 22-448, looked up)
Clusterin: EQEVSDNELQELSTQGSRYINKEIQNAVQGVKHIKTLIEKTNAERKSLLNSLEEAKKKKEDALEDTRDSEMKLKAFPEVCNETMMALWEECKPCLKHTCMKFYARVCRSGSGLVGQQLEEFLNQSSPFYFWMNGDRIDSLLESDRQQSQVLDAMQDSFARASGIIDTLFQDRFFARELHDPHYFSPIGFPHKRPHFLYPKSRLVRSLMSPSHYGPPSFHNMFQPFFEMIHQAQQAMDVQLHSPAFQFPDVDFLREGEDDRTVCKEIRRNSTGCLKMKGQCEKCQEILSVDCSTNNPAQANLRQELNDSLQVAERLTEQYKELLQSFQSKMLNTSSLLEQLNDQFNWVSQLANLTQGEDKYYLRVSTVTTHSSDSEVPSRVTEVVVKLFDSDPITVVLPEEVSKDNPKFMDTVAEKALQEYRRKSRAE
modifications: C-terminal His6 tag
effect on APMA-induced processing of MMP-2 (gel analysis) (APMA-treated reactions): processing of MMP-2 was not altered
inhibition of MMP-2 activity (CLU 50 μg/ml (0.63 μM), APMA, RT 3 h): 72%
potency on MMP-2 compared with SB-3CT (CLU 50 μg/ml or 0.63 μM versus SB-3CT 1 μM): more potent inhibitor of both MMP-9 and MMP-2 than SB-3CT
MMP-2 inhibition at high detergent concentration (buffer with 0.04% Brij 35 or NP-40): inhibited by CLU in both buffers to the extent similar to that in the lower detergent concentration
